The values that follow come from US6001988, “High affinity nucleic acid ligands to lectins” (NeXstar Pharmaceuticals, Inc.).

The target in data set [1] is T1, P-selectin (PS-Rg) (Homo sapiens, UniProt P16109 P16109:42-321).
T1 chain: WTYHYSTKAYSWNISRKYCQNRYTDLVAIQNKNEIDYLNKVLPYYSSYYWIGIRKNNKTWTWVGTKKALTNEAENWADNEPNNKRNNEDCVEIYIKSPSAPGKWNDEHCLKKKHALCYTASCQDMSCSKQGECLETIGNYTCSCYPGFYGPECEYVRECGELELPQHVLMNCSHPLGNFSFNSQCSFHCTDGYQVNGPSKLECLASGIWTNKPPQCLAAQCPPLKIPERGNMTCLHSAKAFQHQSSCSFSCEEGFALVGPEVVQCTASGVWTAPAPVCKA
As to the kind of experiment: filter; room temp, Ca/Mg buffer. Conditions: tags: lectin, EGF and first two CRD domains fused to human IgG1 Fc (provided by A. Varki); chain copies: 2 (dimeric Fc chimera, inferred). The procedure:
(§1) RNA was reverse transcribed into cDNA by AMV reverse transcriptase at 48° C. for 60 min in 50 mM Tris-Cl pH (8.3), 60 mM NaCl, 6 mM Mg(OAc)_2, 10 mM DTT, 100 pmol DNA primer, 0.4 mM each of dNTPs, and 0.4 unit/µl AMV RT. […] C) Nitrocellulose Filter Partitioning As described in SELEX Patent Applications, the nitrocellulose filter partitioning method was used to determine the affinity of RNA ligands for WGA and for other proteins. Filter discs (nitrocellulose/cellulose acetate mixed matrix, 0.45 µm pore size, Millipore; or pure nitrocellulose, 0.45 µm pore size, Bio-Rad) were placed on a vacuum manifold and washed with 4 ml of HBSS buffer under vacuum. Reaction mixtures, containing ^32P labeled RNA pools and unlabeled WGA, were incubated in HBSS for 10 min at room temperature, filtered, and then immediately washed with 4 ml HBSS. The filters were air-dried and counted in a Beckman LS6500 liquid scintillation counter without fluor. WGA is a homodimer, molecular weight 43.2 kD, with 4 GlcNAc binding sites per dimer. For affinity calculations, we assume one RNA ligand binding site per monomer (two per dimer). The monomer concentration is defined as 2 times the dimer concentration. The equilibrium dissociation constant, K_d, for an RNA pool or specific ligand that binds monophasically is given by the equation $$K_d=[P_f][R_f]/[RP]$$
(§2) The affinity of representative cloned ligands for LS-Rg, ES-Rg, PS-Rg, CD22β-Rg and WGA was determined by nitrocellulose partitioning and the results shown in Table XIV. The ligands are highly specific for L-selectin.
(§3) *Kds were determined at room temperature.

Data set [2] deals with T2, E-selectin (ES-Rg) (Homo sapiens, UniProt P16581 P16581:22-556).
T2 chain: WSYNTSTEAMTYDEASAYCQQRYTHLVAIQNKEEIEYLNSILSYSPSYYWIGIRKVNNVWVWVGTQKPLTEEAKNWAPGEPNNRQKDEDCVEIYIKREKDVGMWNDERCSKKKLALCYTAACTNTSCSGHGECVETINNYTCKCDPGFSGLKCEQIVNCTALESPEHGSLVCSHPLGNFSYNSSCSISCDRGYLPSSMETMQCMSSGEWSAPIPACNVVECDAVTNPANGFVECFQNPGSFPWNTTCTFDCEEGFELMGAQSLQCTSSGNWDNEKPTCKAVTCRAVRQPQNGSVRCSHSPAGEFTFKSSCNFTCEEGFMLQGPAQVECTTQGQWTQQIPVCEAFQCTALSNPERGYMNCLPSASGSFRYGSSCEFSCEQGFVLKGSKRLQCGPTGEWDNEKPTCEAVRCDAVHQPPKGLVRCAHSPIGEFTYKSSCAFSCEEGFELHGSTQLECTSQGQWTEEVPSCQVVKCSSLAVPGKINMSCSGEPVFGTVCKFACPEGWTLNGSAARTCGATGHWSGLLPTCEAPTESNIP
Kind of data set: filter; room temp, Ca/Mg buffer. Conditions: tags: extracellular domain fused to human IgG1 Fc (provided by A. Varki); chain copies: 2 (dimeric Fc chimera, inferred). As to the method: as §1, §2, §3

The target in data set [3] is T3, L-selectin (LS-Rg) (Homo sapiens, UniProt P14151 P14151:39-332).
T3 chain: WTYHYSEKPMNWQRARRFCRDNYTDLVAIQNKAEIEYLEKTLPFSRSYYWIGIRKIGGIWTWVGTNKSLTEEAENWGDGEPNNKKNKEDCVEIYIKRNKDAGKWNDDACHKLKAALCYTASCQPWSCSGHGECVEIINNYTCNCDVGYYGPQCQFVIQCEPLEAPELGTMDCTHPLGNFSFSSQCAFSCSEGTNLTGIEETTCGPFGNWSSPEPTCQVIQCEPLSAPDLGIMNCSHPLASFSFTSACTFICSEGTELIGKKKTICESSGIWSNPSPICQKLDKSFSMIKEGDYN
As to the kind of experiment: filter; room temp; 2.1 nM at 37 C. Conditions: tags: human IgG2 Fc fusion (provided by A. Varki); label: 32P.

Data set [4] has as its target T1, P-selectin (PS-Rg). Kind of data set: filter; 4 C, HSMC. Conditions: tags: human IgG1 Fc fusion (provided by A. Varki); chain copies: 2; label: 32P. The procedure:
(§4) As described in SELEX Patent Applications, the nitrocellulose filter partitioning method was used to determine the affinity of RNA ligands for LS-Rg and for other proteins. Filter discs (nitrocellulose/cellulose acetate mixed matrix, 0.45 um pore size, Millipore) were placed on a vacuum manifold and washed with 2 ml of HSMC buffer under vacuum. Reaction mixtures, containing ^32P labeled RNA pools and unlabeled LS-Rg, were incubated in HSMC for 10–20 min at 4° C., room temperature or 37° C., filtered, and then immediately washed with 4 ml HSMC at the same temperature. The filters were air-dried and counted in a Beckman LS6500 liquid scintillation counter without fluor.
(§5) The affinity of L-selectin ligands to ES-Rg, PS-Rg and CD22β-Rg were determined by nitrocellulose partitioning. […] In general, a ligand's affinity for ES-Rg is 10^3-fold lower and that for PS-Rg is about 10^4-fold less than for LS-Rg. […] The specificity of oligonucleotide ligand binding contrasts sharply with the binding of cognate carbohydrates by the selectins and confirms the assertion that SELEX ligands will have greater specificity than carbohydrate ligands.
(§6) *Dissociation constants were determined at 4° C. in HSMC buffer.

Data set [5] has as its target T2, E-selectin (ES-Rg). Kind of data set: filter; 4 C, HSMC. Conditions: tags: human IgG1 Fc fusion (provided by A. Varki), chain copies: 2, label: 32P. As to the method:
as §4, §5, §6

The target of data set [6] is T3, L-selectin (LS-Rg). As to the kind of experiment: filter; 4 C, HSMC; biphasic, fraction 0.65, low affinity Kd 14.5 nM; 142 nM at room temp. Conditions: tags: human IgG2 Fc fusion (provided by A. Varki); label: 32P. As to the method:
as §4
(§7) The dissociation constants for representative ligands from rounds 13 and 14, including all orphans, were determined by nitrocellulose filter binding experiments and are listed in Table IX. These calculations assume two RNA ligand binding sites per chimera. The affinity of random RNA cannot be reliably determined but is estimated to be approximately 10 µM.

Data set [7] deals with T4, wheat germ agglutinin (WGA) (Triticum vulgare, UniProt P10968 P10968:27-197).
T4 sequence: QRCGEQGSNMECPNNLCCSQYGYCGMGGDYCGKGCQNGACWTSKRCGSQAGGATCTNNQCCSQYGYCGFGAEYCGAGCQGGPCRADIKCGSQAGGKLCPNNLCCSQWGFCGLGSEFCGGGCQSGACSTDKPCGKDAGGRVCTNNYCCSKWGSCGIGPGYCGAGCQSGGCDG
Kind of data set: filter; HBSS, room temp; printed as 11.3, SEQ 54. Conditions: tags: free lectin, E Y Laboratories; label: 32P. The procedure: (§8) The specifically eluted fraction was processed for use in the following round. Fractions eluted from immobilized WGA were heated at 90° C. for 5 minutes in 1% SDS, 2% β-mercaptoethanol and extracted with phenol/chloroform. RNA was reverse transcribed into cDNA by AMV reverse transcriptase at 48° C. for 60 min in 50 mM Tris-Cl pH (8.3), 60 mM NaCl, 6 mM Mg(OAc)_2, 10 mM DTT, 100 pmol DNA primer, 0.4 mM each of dNTPs, and 0.4 unit/µl AMV RT. […] C) Nitrocellulose Filter Partitioning As described in SELEX Patent Applications, the nitrocellulose filter partitioning method was used to determine the affinity of RNA ligands for WGA and for other proteins. Filter discs (nitrocellulose/cellulose acetate mixed matrix, 0.45 µm pore size, Millipore; or pure nitrocellulose, 0.45 µm pore size, Bio-Rad) were placed on a vacuum manifold and washed with 4 ml of HBSS buffer under vacuum. Reaction mixtures, containing ^32P labeled RNA pools and unlabeled WGA, were incubated in HBSS for 10 min at room temperature, filtered, and then immediately washed with 4 ml HBSS. The filters were air-dried and counted in a Beckman LS6500 liquid scintillation counter without fluor. […]
The dissociation constants for representative members of families 1–9 and orphan ligands were determined by nitrocellulose filter binding experiments and are listed in Table III. […]

In data set [8] the target is T3, L-selectin (LS-Rg). Kind of data set: filter; 4 C, HSMC (Ca/Mg); biphasic, fraction 0.68, low affinity Kd 60 nM; 1.0 nM at room temp. Conditions: tags: human IgG2 Fc fusion (provided by A. Varki); label: 32P; pseudoknot. As to the method: as §4, §7
The target in data set [9] is T3, L-selectin (LS-Rg). Kind of data set: filter; 4 C, HSMC; 5.5 nM at room temp. Conditions: tags: human IgG2 Fc fusion (provided by A. Varki); label: 32P. As to the method: as §4, §7
The target in data set [10] is T3, L-selectin (LS-Rg). Kind of data set: filter; room temp; 8.8 nM at 37 C. Conditions: tags: human IgG2 Fc fusion (provided by A. Varki); label: 32P; hairpin.
Data set [11] has as its target T3, L-selectin (LS-Rg). Kind of data set: filter; 4 C, HSMC; 1.5 nM at room temp. Conditions: tags: human IgG2 Fc fusion (provided by A. Varki); label: 32P. As to the method:
as §4, §7

Data set [12] deals with T5, Ulex europaeus lectin UEA-II (Ulex europaeus, UniProt P22973 P22973:1-249).
T5 sequence: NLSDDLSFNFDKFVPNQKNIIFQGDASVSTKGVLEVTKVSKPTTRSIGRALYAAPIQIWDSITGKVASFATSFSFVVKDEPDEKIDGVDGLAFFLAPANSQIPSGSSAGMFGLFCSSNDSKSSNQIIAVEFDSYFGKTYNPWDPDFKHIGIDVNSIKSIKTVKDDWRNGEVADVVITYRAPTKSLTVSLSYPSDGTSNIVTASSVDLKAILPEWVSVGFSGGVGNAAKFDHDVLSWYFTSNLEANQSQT
As to the kind of experiment: filter; HBSS, room temp. Conditions: tags: E Y Laboratories; label: 32P; hairpin. As to the method: as §8, with “fluor. WGA is a homodimer, molecular weight 43.2 kD, with 4 GlcNAc binding sites per dimer. For affinity calculations, we assume one RNA ligand binding site per monomer (two per dimer).” for “fluor.”

In data set [13] the target is T4, wheat germ agglutinin (WGA). As to the kind of experiment: filter; HBSS, room temp; 11.4 nM in Table IV. Conditions: tags: free lectin, E Y Laboratories; label: 32P; hairpin. The procedure:
as §8, with “fluor. WGA is a homodimer, molecular weight 43.2 kD, with 4 GlcNAc binding sites per dimer. For affinity calculations, we assume one RNA ligand binding site per monomer (two per dimer).” for “fluor.”

B1: 122 (ssDNA)
DNA: CTACCTACGATCTGACTAGCGCAACGTGGCCCCGTTTAGCTCATTTGACCGTTCCATCCGGCTTACTCTCATGTAGTTCC
Turning to B1, the equilibrium dissociation constant (Kd) (in general, a measure of binding affinity in units of concentration) in [1] is 420 nM; in [2] it was 400 nM; in data set [3] it was 1.8 nM.

B2: F14.53 (ssRNA)
RNA: GGGAGGACGAUGCGGUCCCAGAGUCCCGUGAUGCGAAGAAUCCAUUAGUACCAGACAGACGACUCGCCCGA
modifications: 2'-NH2 all C and U
B2: the Kd amounted to 5200 nM in [4], 355 nM in [5] and 0.097 nM in [6].

B3: 11.30 (ssRNA)
RNA: GGGAAAAGCGAAUCAUACACAAGACGGUUGCUGAACAGAACGUGAGUCUUGGUGAGUCGCACAGAUUGUCCUGCUCCGCCAGAGACCAACCGAGAA
modifications: 2'-NH2 all C and U
In data set [7], B3 displayed a Kd of 56 nM.

B4: F14.20 (ssRNA)
RNA: GGGAGGACGAUGCGGUAACAACAAUCAAGGCGGGUUCACCGCCCCAGUAUGAGUGCAGACGACUCGCCCGA
modifications: 2'-NH2 all C and U
With B4, the Kd in [8] amounted to 0.058 nM; in data set [5] (pseudoknot), 70 nM.

B5: F13.42 (ssRNA)
RNA: GGGAGGACGAUGCGGGAUGUAAAUGACAAAUGAACCUCGAAAGAUUGCACACUCCAGACGACUCGCCCGA
modifications: 2'-NH2 all C and U
B5: the equilibrium dissociation constant (Kd) in [5] was determined as 4400 nM; in data set [9], 2 nM.

B6: 145 (ssDNA)
DNA: CTACCTACGATCTGACTAGCCCCCGAAGAACATTTTACAAGGTGCTAAACGTAAAATCAGGCTTACTCTCATGTAGTTCC
As for B6, binding in data set [10] was put at a Kd of 0.92 nM.

B7: F13.55 (ssRNA)
RNA: GGGAGGACGAUGCGGUGUCUCUCCUGACUUUUAUUCUUAGUUCGAGCUGUCCUGGCAGACGACUCGCCCGA
modifications: 2'-NH2 all C and U
Regarding B7, the Kd in [4] came out at 5800 nM; in data set [5] it was 49 nM; in data set [11] it was 0.062 nM.

B8: 6.8 (ssRNA)
RNA: GGGAAAAGCGAAUCAUACACAAGAAAGGGAUGGGAUUGGGACGAGCGGCCAAGACUCGGCGGGAACGAAGGGUCCGCUCCGCCAGAGACCAACCGAGAA
modifications: 2'-NH2 all C and U
B8: the results for the Kd in data set [12] and in data set [13] were 4400 nM and 11 nM, respectively.
